{"source": "paper PMC3912440", "about": "(Scientific Reports, 2014)", "molecules": {"B1": {"name": "HagB: recombinant hemagglutinin B of P. gingivalis, 49.0 kDa protein composed of 350 amino acid residues (protein)", "chain": "MTVENLRLQRLQNLEHYRFAKNVLTLCRTANIAKLNPKLPELEKAIEMEDLALNPPVANELTPQVIALDEERDRAYQALMSRVRSYAFDEDSQLRNAAARIEDVAARYGNVIRMNYDKETAAIENFLTDLKGENIRPLVTKLGVTALVDRLEKNNKAFADFFLRRLSTDQRGKYDVKALRAETDRTLVAVVRRMDSIDDMEPSPEIRALIELYNRLVANRRALLARRASYGEAAVEKRRAEIAEMLRPLLARIVEEKKTAVFAGRTLGTGKNRHYLITFVAENGDEEDRWYRINGEQLVYVPEDELPKPKKKKKPASSTDTPSEPPVLPDPSQGGSSSGGGEQGSTGGGL", "modifications": "left off: His6 (from the vector pQE31), end not stated, state not stated"}}, "test_system": "Mononuclear cell-derived human myeloid dendritic cells", "type": "cell-based", "settings": "0.02 μM HagB alone", "data": [{"molecule": "B1", "values": [{"measurement": "CCL3/MIP-1α, CCL4/MIP-1β, and TNFα responses induced", "value": "strong"}, {"measurement": "CSF2/GM-CSF response induced", "value": "weaker"}]}]}
